Data: PMC8546341, “A Novel β-Glucosidase From Chryseobacterium scophthalmum 1433 for Efficient Rubusoside Production From Stevioside” (Frontiers in Microbiology, 2021)

How the values were obtained:
CsBGL = target: T1, CsBGL (Chryseobacterium scophthalmum, UniProt A0A8A3WQK4); experiment: inhibition of pNP-β-Glc hydrolysis, p-nitrophenol at […] nm; type: biochemical; details: substrate pNP-β-Glc 0.1–10 mM, glucose 0–80 mM, 50 mM sodium phosphate pH 7.4, 45 °C; mode not stated
T1 construct: gene bgl
T1 sequence (A0A8A3WQK4 19-775): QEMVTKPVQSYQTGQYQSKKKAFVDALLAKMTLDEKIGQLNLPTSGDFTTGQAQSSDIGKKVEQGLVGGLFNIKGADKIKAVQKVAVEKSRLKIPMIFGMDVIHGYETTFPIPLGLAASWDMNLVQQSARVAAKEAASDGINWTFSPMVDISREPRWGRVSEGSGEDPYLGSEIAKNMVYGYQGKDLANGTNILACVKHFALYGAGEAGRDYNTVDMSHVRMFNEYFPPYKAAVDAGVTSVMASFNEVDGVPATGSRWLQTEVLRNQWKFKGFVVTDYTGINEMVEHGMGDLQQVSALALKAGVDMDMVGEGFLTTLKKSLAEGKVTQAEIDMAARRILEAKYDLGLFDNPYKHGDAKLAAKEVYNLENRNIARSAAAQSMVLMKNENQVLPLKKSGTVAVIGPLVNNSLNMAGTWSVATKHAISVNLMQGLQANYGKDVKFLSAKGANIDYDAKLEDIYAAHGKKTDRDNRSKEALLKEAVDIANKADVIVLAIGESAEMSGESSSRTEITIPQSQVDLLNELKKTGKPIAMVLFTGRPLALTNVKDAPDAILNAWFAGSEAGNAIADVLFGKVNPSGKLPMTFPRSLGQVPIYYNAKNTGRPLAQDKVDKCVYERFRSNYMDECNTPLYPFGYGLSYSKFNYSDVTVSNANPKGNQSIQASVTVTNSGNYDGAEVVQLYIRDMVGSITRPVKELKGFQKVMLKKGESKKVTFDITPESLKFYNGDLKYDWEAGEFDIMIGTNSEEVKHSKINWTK

purified protein = substrate: O=[N+]([O-])c1ccc(O[C@@H]2O[C@H](CO)[C@@H](O)[C@H](O)[C@H]2O)cc1; experiment: purified protein; type: biochemical, Chryseobacterium scophthalmum; details: 50 mM sodium phosphate pH 7.4, 45 °C
[1] = substrate: C=C1C[C@@]23CC[C@H]4[C@@](C)(CCC[C@@]4(C)C(=O)O[C@@H]4O[C@H](CO)[C@@H](O)[C@H](O)[C@H]4O)[C@@H]2CC[C@]1(O[C@@H]1O[C@H](CO)[C@@H](O)[C@H](O)[C@H]1O[C@@H]1O[C@H](CO)[C@@H](O)[C@H](O)[C@H]1O)C3; experiment: initial velocity of stevioside hydrolysis; type: biochemical, Chryseobacterium scophthalmum; details: 50 mM sodium phosphate pH 6.5, 47.5 °C

OC[C@H]1OC(O)[C@H](O)[C@@H](O)[C@@H]1O (some centres unmarked) [glucose]
Ki (CsBGL): 16.4 mM

B1: CsBGL (Chryseobacterium scophthalmum) (protein)
chain: T1 sequence (A0A8A3WQK4 19-775)
Km (purified protein): 1620 µM | kcat (purified protein): 16.77 s⁻¹ | Km [1]: 1540 µM | kcat [1]: 248.59 s⁻¹
